According to article PMC4845099:

Tested on: Cc1cc(=O)oc2cc(NC(=O)CNC(=O)CNC(=O)[C@H](CCCNC(=N)N)NC(=O)[C@H](CC(C)C)NC(=O)[C@H](CCCNC(=N)N)NC(=O)OCc3ccccc3)ccc12
Test: purified protein, by the assay type
Details: pH 7.5

MERS-PLpro (Betacoronavirus England 1)
Km: 142 µM | kcat/Km: 18000 M⁻¹ s⁻¹
